Source: patent US20240024480A1 (MIE UNIVERSITY, published 2024)

Molecular target: HLA-A24 PRAMEp301-309 pMHC complex (human)
Experiment: SPR, Biacore X100, Biotin CAPture Kit; A24 PRAMEp301-309 immobilised as ligand, scFv-pp at 31.25-500 nM, global fit

Kd: 5.3 nM
B1: #98 scFvCL-pp (scFv)
chain: QVQLVQSGAEVKKPGSSVKVSCKASGGTFSSYAISWVRQAPGQGLEWMGGIIPIFGTANYAQKFQGRVTITADESTGTAYMELSSLRSEDTAVYYCARHHSNYYYYGMDVWGQGTTVTVSRSYELTQPLSVSVALGQTARITCGGNNIGSKNVHWYQQKPGQAPVLVIYRDSNRPSGIPERFSGSNSGNTATLTISRAQAGDEADYYCQVWDSSHVFGTGTKVTVL
